Data on five substances can be found in article doi:10.1101/2025.11.11.687775.

Like-named read-outs stand apart in the source and are kept apart here.

Experiment [1] has as its target microtubules of primary rat hippocampal neurons (rat (endogenous in primary hippocampal neurons)) (UniProt P68370).
Experiment [2] has the same target. The experiment can be described thus: FRAP + reaction-diffusion simulation.
Experiment [3] shares this target. The source holds these as a separate data set.
The target is the same in experiment [4]. Put plainly: FRAP + reaction-diffusion simulation. The source holds these as a separate data set.
Experiment [5] concerns the target microtubules of Tau-knockout mouse neurons (mouse (endogenous in Tau-KO neurons)) (UniProt P68369).

Turning to “GFP-tagged Tau 198A single alanine substitution mutant (natural protein)”, the FRAP recovery plateau in rat neurons (Figure 3B) in experiment [1] turned out to be 0.586.

On to “GFP-tagged Tau 198A/199A mutant (2A) (natural protein)”, for which the Kd in experiment [2] is 905 nM.

Take “GFP-tagged Tau 198A/199A/202A/205A mutant (4A) (natural protein)”: in experiment [2], the Kd is 510 nM.

Take “GFP-tagged Tau 199A single alanine substitution mutant (natural protein)”: the Kd in experiment [2] is 1350 nM. The substance also came in with an FRAP recovery plateau in rat neurons (Figure 3B) in experiment [1] of 0.584.

On to “GFP-tagged wild-type human Tau, 0N4R isoform (AcGFP-Tau0N4R-His) (from UniProt P10636-6 1-383) (natural protein)”, for which, in experiment [2], the Kd is 3000 nM, the koff was greater than 0.1 s⁻¹ and the kon was greater than 300000 M⁻¹ s⁻¹. In experiment [3], this substance registered an FRAP recovery rate constant (K) in rat neurons (Figure 3D), n = 12 of 0.081. In experiment [1], the FRAP recovery plateau in rat neurons (Figure 3B) is 0.712. In experiment [4], the koff is greater than 0.3 s⁻¹ and the kon was greater than 100000 M⁻¹ s⁻¹. In addition, in experiment [5], the FRAP recovery rate constant (K), n = 6 (read as Tau-KO neurons) came out at 0.085.

As a reminder, the Kd is the free concentration of one partner at which half of the binding sites on the other are occupied at equilibrium, for simple one-to-one binding. Usually koff stands for the first-order rate constant of dissociation. Broadly, the kon is the rate constant with which the complex forms.
